# Results reported in patent US20020048584A1, “Method of treating residual HIV-I disease” (priority 2000, published 2002).
# Experiments:
# [1] = Safety and tolerability of IL-2 and OKT3 stimulation therapy with hydroxyurea and ddI intensification in patients on HAART; type: in vivo, human
# Description: Treatments with OKT3 and IL-2 are initiated with a physician present during a four to five day admission to the Bone Marrow Transplant Unit. The first dose of IL-2 is given 24 hours after infusion of OKT3, and continued for a total of fourteen days. After 72 hours, if the patient has no or mild adverse side-effects, then the patient can be discharged and followed in the Infectious Disease Clinic as an out-patient, continuing IL-2 administration at home. […] Of note, further treatments with OKT3 may not be possible due to the potential production of human anti-murine antibodies ([…]., et al., Transplant Rev. 5: 181-199, 1991). […] The NIAID standardized toxicity grading system will be utilized (Table 3). Toxicity is graded on a 1 to 4 scale. When toxicity is encountered the dose administered to subjects is modified. […] Level 2 dose reduction will include discontinuation from the study. For hydroxyurea, Level 1 dose reduction will be to 800 mg qday (400 mg po BID).
# [2] = test system: CD4+ T-lymphocytes; details: cited from earlier work
# [3] = test system: T-lymphocytes; details: solid organ transplant subjects; cited from earlier work
# [4] = in vivo; cited from earlier work
# [5] = OKT3 over 5 to 15 minutes on first day, followed by IL-2; cited from earlier work
compound,measurement,setting,value
"O=c1[nH]cnc2c1ncn2[C@H]1CC[C@@H](CO)O1 [ddI, didanosine, reference compound]",serious adverse side-effects,"[1]; patient #28, entire trial",did not have serious adverse side-effects
"NC(=O)NO [hydroxyurea, reference compound]",serious adverse side-effects,"[1]; patient #28, entire trial",did not have serious adverse side-effects
"IL-2: cytokine, 15,300 daltons, produced via recombinant DNA technology using genetically-engineered E. coli (Proleukin; Chiron)",serious adverse side-effects,"[1]; human, in vivo",did not have serious adverse side-effects
same,increase in CD4+ T-lymphocytes,"[2]; intravenous 18×10^6 IU per day, five-day treatments every two months, 6 cycles, baseline CD4+ greater than 200 cells/mm^3",approximately 400 cells per mm3
same,"CD4+ T-lymphocyte count, mean value after treatment","[2]; subcutaneous, 5 day courses every 8 weeks for 6 cycles, starting 7.5×10^6 IU bid, mean 355 at entry",739
OKT3: purified murine monoclonal antibody (IgG2a) directed to the CD3 antigen of human T-lymphocytic cells,time to return of T-cell function to baseline levels after termination,[3],one
same,serious adverse side-effects,"[1]; human, in vivo",did not have serious adverse side-effects
same,"chest pain, patients",[4],14%
same,"dyspnea, patients",[4],21%
same,"headache, patients",[4],11%
same,"hypertension, patients",[4],8%
same,"nausea, patients",[4],19%
same,"rigor, patients",[4],8%
same,"tachycardia, patients",[4],10%
same,"tremor, patients",[4],13%
same,"vomiting, patients",[4],19%
same,"wheezing, patients",[4],13%
same,maximum tolerated dose (MTD),[5],400 μg/m^2
